Results from patent US20160160263.

Key:
[1] = test system: SNPYK-Y (SEQ ID NO: 21), MMP9 selective substrate
[2] = test system: SNPYG-Y (SEQ ID NO: 23), MMP9 selective substrate
[3] = test system: TIAH/LH, MMP2 selective substrate
[4] = test system: RS-Q-G-(homoF)-YLY (SEQ ID NO: 71)
[5] = test system: T1, YGRAAA (SEQ ID NO: 17), uPA selective substrate
T1 sequence: YGRAAA

Sequence of MMP-9 (chain, as listed by the source): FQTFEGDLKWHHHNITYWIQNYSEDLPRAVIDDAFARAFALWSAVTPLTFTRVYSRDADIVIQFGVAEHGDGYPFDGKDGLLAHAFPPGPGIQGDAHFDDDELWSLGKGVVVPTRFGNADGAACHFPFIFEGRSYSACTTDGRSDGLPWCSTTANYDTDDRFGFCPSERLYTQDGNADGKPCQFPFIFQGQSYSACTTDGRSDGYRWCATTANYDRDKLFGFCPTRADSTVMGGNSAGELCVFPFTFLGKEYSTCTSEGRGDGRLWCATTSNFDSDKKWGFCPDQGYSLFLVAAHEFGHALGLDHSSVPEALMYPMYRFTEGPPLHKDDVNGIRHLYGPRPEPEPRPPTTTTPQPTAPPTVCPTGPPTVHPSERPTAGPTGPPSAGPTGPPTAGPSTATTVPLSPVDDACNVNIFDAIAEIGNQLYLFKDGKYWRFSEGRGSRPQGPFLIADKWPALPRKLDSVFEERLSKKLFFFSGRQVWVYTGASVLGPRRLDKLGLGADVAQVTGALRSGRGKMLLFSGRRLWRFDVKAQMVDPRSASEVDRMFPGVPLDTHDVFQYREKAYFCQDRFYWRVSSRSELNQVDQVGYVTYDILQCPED

With MMP-9 the “cleavage of ACPP substrate by protease (FAM/Cy5 ratiometric RACPP)” value [1] was “MMP9 selective substrates”, the “cleavage of ACPP substrate by protease (FAM/Cy5 ratiometric RACPP)” value [2] was “MMP9 selective substrates” and the “cleavage of ACPP substrate by protease” value [3] was “selectively cleaved by MMP-2 versus 9 and 14”.

In the case of MT2-MMP, the “cleavage of substrate by protease” value [4] was “Only RS-Q-G-(homoF)-YLY (SEQ ID NO: 71) shows significant cleavage by MT2-MMP”.

With urokinase plasminogen activator (uPA) the “cleavage of ACPP substrate by protease” value [5] was “efficiently cleaved by uPA”.
